Reference: patent US20030017502A1, “Methods involving the use of capG as a diagnostic marker and methods for the identification of capG modulators for the treatment and prevention of osteoporosis and related disease states” (priority 2001, published 2003)

Tested on: capG phosphorylation in RAW 264 cells
Assay: two-dimensional anti-phosphotyrosine Western blot of RAW 264 cell lysates with and without RANKL stimulation and inhibitor pretreatment
Format: cell-based, murine
Details: RAW 264 cells stimulated with RANKL versus unstimulated control
Description: RAW 264 cells were obtained from Bristol Myers Squibb Department of Metabolic Diseases. The cells were grown in minimal essential media supplemented with 5% fetal bovine serum and 1% nonessential amino acids. For assay purposes, RAW 264 cells were starved for 5 hours in serum free media and then cultured in media containing 2% fetal bovine serum and RANK ligand. When inhibitors were used, as set forth below, the cells were pre-exposed to the inhibitor for one hour prior to RANKL stimulation. To identify RANKL specific tyrosine phosphorylation, RAW264 cells were treated with RANKL in the presence and absence of PP1 [4-Amino-5-(4-methylphenyl)-7-(t-butyl)pyrazolo[3,4-d]pyrimidine], a specific inhibitor of pp60src and wortmannin, a specific inhibitor of PI3kinase (Lakkakorpi, P. T. et al., “Phosphatidylinositol 3-kinase association with the osteoclast cytoskeleton, and its involvement in osteoclast attachment and spreading”. Exp. Cell Res. 237(2):296-306 (1997)), and cell lysates evaluated by proteomic analysis. Cell lysates were separated by two-dimensional electrophoresis in duplicate and transferred to PVDF membranes. […] 35(6):672-682 (2000), for subsequent proteomic analysis with the corresponding membrane analyzed by western blotting using anti-phosphotyrosine antibody. […] Maximal fluorescence incorporation occurred within 4 hours. […]

B1: RANKL: ligand recognized by receptor activator of NF-κB (RANK), leads to osteoclast differentiation (protein, UniProt O14788 140-317, looked up)
Tumor necrosis factor ligand …: IRAEKAMVDGSWLDLAKRSKLEAQPFAHLTINATDIPSGSHKVSLSSWYHDRGWAKISNMTFSNGKLIVNQDGFYYLYANICFRHHETSGDLATEYLQLMVYVTKTSIKIPSSHTLMKGGSTKYWSGNSEFHFYSINVGGFFKLRSGEEISIEVSNPSLLDPDQDATYFGAFKVRDID
capG phosphorylation on stimulation: causes capG 102 phosphorylation
